Each block holds one molecule with its values, some of them ahead of it.
Columns and labels:
[1] = system: A549 xenograft; assay: A549 xenograft model, H3 in combination with gemcitabine and Avastin; type: in vivo, mouse; conditions: single agents and combinations
Method: To determine potential synergistic effects of combining the antibodies with other cancer therapeutic agents, the H3 antibody was tested in combination with gemcitabine, a commonly used chemotherapeutic agent, and Avastin®, a FDA approved VEGF neutralizing monoclonal antibody, in the A549 xenograft model. At day 7 after tumor cell inoculation subcutaneously, the animals were randomized into one of the 8 groups: […] (6 mice), gemcitabine (5 mice), H3 (7 mice), Avastin® (5 mice), H3+gemcitabine (5 mice), 113+Avastin® (5 mice), Avastin®+gemcitabin (5 mice), and H3+ gemcitabine+Avastin® (7 mice). In this experiment, all the agents were given IP at day 7 and every 3 days thereafter for total 5 injections. H3 was given 250 μg per mouse/injection without boost at first injection; gemcitabine was given in a dose of 80 mg/kg/injection; and Avastin® was given 100 μg per mouse/injection.

[2] = system: tumor microvessels; assay: CD31 staining of microvessels in treated A549 xenograft tumors; type: in vivo, mouse
Description: In order to directly study the antiangiogenic action of anti-HDGF antibodies, the xenograph tumors treated with the various agents and presented in the foregoing example (see FIG. 8) were studied following CD31 staining. CD31 antibody staining is generally regarded as a convenient means of visualizing microvessels in order to assess angiogenesis and anti-angiogenic action. Each of the tumors treated as described with respect to FIG. 8 were subjected to CD31 staining.

[3] = system: A549 xenograft; assay: A549 xenograft model, individual monoclonal antibodies; type: in vivo, mouse; conditions: for average tumor weights: 500 μg boost then 250 μg every three days x4 i.p., day 22, PBS 784±458; for tumor growth inhibition vs PBS and M31 controls: A549 xenograft, individual antibodies
Description: To determine an anti-tumor effect of individual monoclonal antibodies, the CELLine™ system (BD Biosciences) was used to generate the amount of antibodies for each clone sufficient for our animal experiments. In our second experiment, we tested four individual monoclonal antibodies (H3, C1, C4, and L5-9) and used PBS and M31, an IgG1 antibody without known antigen, as controls. Cell inoculation was similar to the experiment described above, 7 days after subcutaneous injection of A549 cells, the animals with established tumors were randomized into one of the 6 groups. Besides PBS group, which was given 200 μl PBS every IP injection, all the other groups were given a 500 μg of individual antibody as boost dose followed by 250 μg/injection every three days for four times. Tumor sizes were measured every three days. All the animals were sacrificed at day 22 after tumor cell inoculation.

[4] = biological target: T1, HDGF (Mus musculus, UniProt P51859, A118D); assay: Western blot of HDGF in putative MiaPaca-2 cells; type: binding; conditions: putative MiaPaca-2 line (murine HDGF)
T1 construct: endogenous in cells; host or cells: putative MiaPaca-2 cells, believed to be M109 murine lung adenocarcinoma
Method: (§1) The two antibodies were tested using what was believed at the time to be the MiaPaca-2 pancreatic cancer xenograft model. […] This observation led to the use of H3 in the initial combination experiment described above. To determine the expression of HDGF in the cell line, a Western blot analysis was performed using C1 and H3 antibodies. […] To determine HDGF expression levels in pancreatic cancers, 7 additional pancreatic cancer cell lines were analyzed. All the 7 cell lines expressed high-level HDGF recognizable by H3 antibody but not the putative “MiaPaca-2” line.
(§2) An immunoprecipitation assay was then performed using H3 antibody to determine whether the antibody recognizes the native HDGF in the cells, which is important to explain why the antibody had inhibited the tumor growth in the xenograft model. […] Because the protein migrated faster than the HDGF from NSCLC cell lines, the HDGF cDNA from “MiaPaca-2” cells was sequenced. […] The origin of the cell line was traced and is now believed to be M109, a murine lung adenocarcinoma cell line from a mouse spontaneous lung cancer.

[5] = biological target: T2, HDGF (Homo sapiens, UniProt P51858); assay: Immunoprecipitation of HDGF from H460 total cell lysates; type: binding; conditions: H460 NSCLC total cell lysates
T2 construct: The antibody sufficiently pulled down over 90% of the cellular HDGF; endogenous in cells; host or cells: H460 NSCLC cells (total cell lysate)
Method: In most studies, HDGF was found localized in nuclear compartment. […] One possibility of the lacking cytoplasmic staining is the common IHC conditions. Alternatively, the protein may be rapidly released from cells making the detection of protein in cytoplasm difficult. Taking advantage of the newly developed monoclonal antibodies, two sets of experiments were performed to determine the subcellular localization of HDGF and the secretion/releasing status of the protein. In one set of experiment, H3 was used for immunoprecipitation (IP) employing total cell lysates from H460 NSCLC cells. The antibody sufficiently pulled down over 90% of the cellular HDGF. Some potential HDGF binding proteins might have also co-precipitated with HDGF. We then extracted cytoplasmic proteins and nuclear proteins separately and performed IP as described above followed by 2-DE protein separation. Although the relative HDGF protein amount was higher in the nuclear than in the cytoplasm with equal amount of protein loading, HDGF was clearly presented in cytoplasm with distinct modification or homologues patterns between the two subcellular compartments. It should be noted that the total amount of cytoplasmic proteins is much higher than the nuclear proteins. Therefore, the absolute amount of HDGF in cytoplasm may actually be similar or even higher to that in nuclear.

[6] = Antibody distribution after intra-peritoneal injection in tumor-bearing nude mice; type: in vivo; conditions: for antibody localization in tumor tissue (anti-mouse IgG staining): tumor tissue sections of treated tumors
Method: To determine the distribution of the antibodies after intra-peritoneal injection in the animals, we injected fluoresce labeled M31 and H3 antibodies into nude mice and used a scanner to measure the antibody distribution 12 h after injection. […] To determine the antibody distribution in the tumor tissues and to compare the patterns of the distribution in the tumor tissues among the different antibodies, a specific anti-mouse IgG antibody was used to stain tumor tissue sections of tumors treated with different antibodies.

[7] = biological target: native HDGF (Homo sapiens, UniProt P51858); assay: Binding to native HDGF (immunoprecipitation, clone selection)
Description: Thus, to develop a useful therapeutic that could affect tumor control, it was deemed important to develop high-affinity monoclonal antibodies that had the ability to bind native HDGF. An exemplary approach that was employed by the inventors involved, first, generating full-length recombinant HDGF in bacteria. This bacterially expressed recombinant HDGF was then used the immunize mice to generate mature B cells secreting antibodies specifically recognizing HDGF. After fusing the B cells with myeloma cells and several rounds of screening/selection steps, single clones secreting high-affinity IgGs capable to bind native HDGF were identified. […] Antibodies from these clones were selected and tested using IHC. Similar staining patterns were obtained in a panel of tumor samples among these antibodies and between these antibodies and the previously mentioned polyclonal antibodies, indicating these antibodies recognize HDGF. All of the four monoclonal antibodies are IgG1 and have been adapted to serum-free conditions for scale-up production.

[8] = system: H460 xenograft; assay: H460 xenograft model; type: in vivo, mouse
[9] = system: "MiaPaca-2" line (M109); assay: Putative MiaPaca-2 (believed M109 murine lung adenocarcinoma) xenograft model; type: in vivo, mouse; conditions: putative MiaPaca-2 (murine M109) model, H3 compared with C1
Method: as §1, §2

[10] = biological target: T3, native HDGF (Mus musculus, UniProt P51859); assay: Immunoprecipitation of native HDGF from putative MiaPaca-2 cells; type: binding; conditions: putative MiaPaca-2 cells (murine HDGF)
T3 construct: endogenous in cells; host or cells: putative MiaPaca-2 cells, believed to be M109 murine lung adenocarcinoma
Method: as §2

[11] = system: L3.6 pancreatic cancer cells; assay: L3.6 pancreatic cancer xenograft model; type: in vivo; conditions: mice with tumors bigger than 500 mg, one week after treatment
Method: Anti-HDGF antibodies were tested for a therapeutic effect in a xenograft model using metastatic L3.6 pancreatic cancer cells. After 10 days of tumor cell inoculation, mice were randomly selected into either M31 control antibody treatment, H3 antibody treatment, or C1 antibody treatment. The sizes of the tumors were between 100-200 mg at the time of treatment except three which grown bigger than 500 mg and were assigned to each group. […] This phenomenon is similar to human clinical observations where some established primary lung cancers develop liquidized central part of the tumors after treatment with agents having anti-angiogenic activity such as sorafenib (BAY 43-9006). This is a hallmark feature of anti-angiogenic agents as a class.

[12] = biological target: T4, human hepatoma-derived growth factor (HDGF) (human, UniProt P51858 1-240); assay: sandwich ELISA, 40 ng C1 coated per well as capture antibody
T4 construct: In most assays the endogenous protein of human cancer cell lines or tissues (lysates for immunoprecipitation, denatured on Western blots); also called native HDGF; recombinant HDGF
T4 sequence (P51858 whole entry): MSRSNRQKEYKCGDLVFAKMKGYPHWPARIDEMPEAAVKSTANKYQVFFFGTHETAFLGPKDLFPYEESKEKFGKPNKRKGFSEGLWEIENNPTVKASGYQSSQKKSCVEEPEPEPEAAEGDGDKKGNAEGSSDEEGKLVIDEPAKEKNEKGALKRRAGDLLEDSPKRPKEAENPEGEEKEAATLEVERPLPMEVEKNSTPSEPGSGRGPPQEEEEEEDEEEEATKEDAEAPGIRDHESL

Sequence of native HDGF (Homo sapiens, UniProt P51858) (P51858 whole entry): as above
T1 sequence (P51859 whole entry A118D): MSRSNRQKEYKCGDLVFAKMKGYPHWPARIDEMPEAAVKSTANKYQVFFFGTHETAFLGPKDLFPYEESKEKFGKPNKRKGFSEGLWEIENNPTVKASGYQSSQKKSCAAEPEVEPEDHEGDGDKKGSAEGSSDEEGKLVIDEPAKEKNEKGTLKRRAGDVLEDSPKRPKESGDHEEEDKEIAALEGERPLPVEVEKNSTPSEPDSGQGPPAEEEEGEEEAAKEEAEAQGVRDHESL
T3 sequence (P51859 whole entry): as the sequence (P51859 whole entry A118D) above, with D118A counted along it
T2 sequence (P51858 whole entry): as the sequence (P51858 whole entry) above

Molecule: Nc1ccn([C@@H]2O[C@H](CO)[C@@H](O)C2(F)F)c(=O)n1 [gemcitabine, reference compound]
- tumor growth inhibition [1]: only modest tumor growth inhibition
- size of the microvessels in the tumors [2]: further increase the size

Molecule: Avastin®: FDA approved VEGF neutralizing monoclonal antibody [reference compound]
- tumor growth inhibition [1]: best inhibition
- numbers of microvessels in the tumors [2]: substantially reduced numbers of microvessels

Now from value to molecule, other results behind:

- detection of HDGF on Western blots [4]: did not detect HDGF
- cellular HDGF pulled down by immunoprecipitation [5]: over 90%
- binding to native HDGF [7]: ability to immunoprecipitate HDGF
- binding to native HDGF of the tumor cells [10]: strongly bound
B1: H3: anti-HDGF IgG1 monoclonal antibody; heavy chain SEQ ID NO:36, light chain SEQ ID NO:38 (antibody, V domains shown)
VH: QITLKQSGPGIVQPSQPVRLTCTFSGFSLSTSGIGVAWIRQPSGKGLEWLATIWWDDDNRYNPSLKSRLAVSKDTSNNQAFLNIITVETADTAIYYCAQIYDYAVGFAYWGQGTLVTVSA
VL: DIQMTQTTSSLSASLGDRVTISCRASQDISNYLNWYQQKPDGTVKLLIYYTSRLHSGVPSRFSGSGSGTDYSLTISNLEPDDIATYYCQQYGKLWTFGGGTKLEIK
modifications: H3 heavy chain aa; H3 light chain aa
- average tumor weights [3]: 266±22
- tumor growth inhibition vs PBS and M31 controls [3]: most significant tumor growth inhibition
- tumor growth inhibition [1]: best inhibition followed by H3
- antibody distribution in the animals including tumors ([6]; fluorescence-labeled antibody, 12 h after i.p. injection, nude mice): evenly distributed
- antibody localization in tumor tissue (anti-mouse IgG staining) [6]: entered into the cytoplasmic compartment of some tumor cells
- tumor growth inhibition [8]: effective in inhibiting tumor growth
- numbers of microvessels in the tumors [2]: substantially reduced numbers of microvessels
- size of the microvessels in the tumors [2]: stronger role in reducing the size
- tumor growth inhibition [9]: better tumor growth inhibition
- liquidized central part of tumor (hollow effect) [11]: developed liquidized central part

- binding result [12]: binds
B2: anti-HDGF monoclonal antibody C1 (antibody, V domains shown)
VH: EVQLVESGGRLVQPKGSLKLSCAASGFTFNTYAMYWIRQAPGKGLEWVARIRSKSYNYATYYADSVKDRFTISRDDSQSMLYLQMNNLKTADTAMYYCVSEGFWGQGTSVTVSS
VL: DVLMTQTPLSLPVSLGDQASISCRSSQSIVHSSGNTYLEWYLQKPGQSPKLLIYKVSNRFSGVPDRFSGSGSGTDFTLKISRVEAEDLGVYYCFQGSHVPWTFGGGTKLEIK
notes: also called HDGF C1-2f; C1 antibody

- detection of HDGF on Western blots [4]: did not detect HDGF
- binding to native HDGF [7]: ability to immunoprecipitate HDGF
B3: C1: anti-HDGF IgG1 monoclonal antibody; heavy chain SEQ ID NO:32, light chain SEQ ID NO:34 (antibody, V domains shown)
VH: B2 VH
VL: B2 VL
modifications: C1 heavy chain aa; C1 light chain aa
- average tumor weights [3]: 224±85
- tumor growth inhibition vs PBS and M31 controls [3]: most significant tumor growth inhibition
- antibody localization in tumor tissue (anti-mouse IgG staining) [6]: entered into both cytoplasm and nuclear
- tumor growth inhibition [8]: effective in inhibiting tumor growth
- liquidized central part of tumor (hollow effect) [11]: developed liquidized central part
